In PMC11910620 (Nature Communications, 2025):
Where a chain is given by its changes, count along the chain named. Numbers in names are those of the source. Where “and” joins values, the source holds several entries; their conditions need not be identical. Identical values can stand only once.

T1: Msn5 (S. cerevisiae exportin), wild type (S. cerevisiae, UniProt P52918 1-1224)
T1 sequence: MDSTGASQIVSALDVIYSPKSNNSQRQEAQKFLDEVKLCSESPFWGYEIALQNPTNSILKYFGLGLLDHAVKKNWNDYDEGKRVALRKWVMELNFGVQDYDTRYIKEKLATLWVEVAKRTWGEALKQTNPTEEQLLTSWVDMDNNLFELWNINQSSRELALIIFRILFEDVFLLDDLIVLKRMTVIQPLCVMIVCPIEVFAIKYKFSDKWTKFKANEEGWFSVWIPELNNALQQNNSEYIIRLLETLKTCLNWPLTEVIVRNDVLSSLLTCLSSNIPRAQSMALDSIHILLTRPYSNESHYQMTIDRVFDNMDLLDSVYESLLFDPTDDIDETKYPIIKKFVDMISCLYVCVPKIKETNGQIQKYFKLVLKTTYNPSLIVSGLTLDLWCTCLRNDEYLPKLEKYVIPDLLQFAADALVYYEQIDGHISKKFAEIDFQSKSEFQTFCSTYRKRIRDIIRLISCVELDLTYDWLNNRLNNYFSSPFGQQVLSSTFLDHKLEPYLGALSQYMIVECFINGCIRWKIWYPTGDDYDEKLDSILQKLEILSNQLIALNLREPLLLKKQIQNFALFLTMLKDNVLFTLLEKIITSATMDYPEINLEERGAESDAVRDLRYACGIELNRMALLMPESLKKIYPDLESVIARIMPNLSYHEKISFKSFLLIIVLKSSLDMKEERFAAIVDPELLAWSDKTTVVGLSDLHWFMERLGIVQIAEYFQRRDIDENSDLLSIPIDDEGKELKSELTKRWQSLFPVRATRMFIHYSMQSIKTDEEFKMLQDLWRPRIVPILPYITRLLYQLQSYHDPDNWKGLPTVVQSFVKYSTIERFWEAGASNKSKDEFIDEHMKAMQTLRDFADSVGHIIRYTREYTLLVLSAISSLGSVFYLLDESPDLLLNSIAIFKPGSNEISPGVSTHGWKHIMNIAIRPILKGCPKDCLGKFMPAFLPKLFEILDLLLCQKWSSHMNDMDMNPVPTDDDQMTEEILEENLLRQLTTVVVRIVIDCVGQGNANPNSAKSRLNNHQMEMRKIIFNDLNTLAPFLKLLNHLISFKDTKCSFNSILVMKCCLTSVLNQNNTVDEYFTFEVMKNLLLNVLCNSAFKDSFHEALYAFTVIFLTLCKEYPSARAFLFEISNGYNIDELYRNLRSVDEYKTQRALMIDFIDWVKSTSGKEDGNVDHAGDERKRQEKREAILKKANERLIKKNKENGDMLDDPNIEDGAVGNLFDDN

T2: Msn5 RRAA (R393A, R458A) (S. cerevisiae, UniProt P52918 1-1224, RRAA (R393) | RRAA (R458))
T2 sequence: T1 sequence with R393A, R458A

B1: mNeonGreen-Pho4_(3-200), unphosphorylated (domain or fragment)
chain: RTTSEGIHGFVDDLEPKSSILDKVGDFITVNTKRHDGREDFNEQNDELNSQENHNSSENGNENENEQDSLALDDLDRAFELVEGMDMDWMMPSHAHHSPATTATIKPRLLYSPLIHTQSAVPVTISPNLVATATSTTSANKVTKNKSNSSPYLNKRRGKPGPDSATSLFELPDSVIPTPKPKPKPKQYPKVILPSNST
B2: mNeonGreen-pPho4_(3-200) S114/128AA (domain or fragment)
chain: B1 chain with S112A, S126A
modifications: phosphorylated in vitro by Pho80-Pho85: pS100, pS152
B3: mNeonGreen-pPho4_(3-200) R3mut (domain or fragment)
chain: B1 chain with A120G, V121G, P122S, V123G, T124G, I125S
modifications: phosphorylated in vitro by Pho80-Pho85: pS100, pS114, pS128, pS152
B4: mNeonGreen-pPho4_(3-200) S100/152AA (domain or fragment)
chain: B1 chain with S98A, S150A
modifications: phosphorylated in vitro by Pho80-Pho85: pS114, pS128
B5: mNeonGreen-pPho4_(3-200) S114A (domain or fragment)
chain: B1 chain with S112A
modifications: phosphorylated in vitro by Pho80-Pho85: pS100, pS128, pS152
B6: mNeonGreen-pPho4_(3-200) R4mut (L131A/T134A) (domain or fragment)
chain: B1 chain with L129A, T132A
modifications: phosphorylated in vitro by Pho80-Pho85: pS100, pS114, pS128, pS152
B7: pPho4_(1-200), phosphorylated, GST removed (domain or fragment)
chain: MGRTTSEGIHGFVDDLEPKSSILDKVGDFITVNTKRHDGREDFNEQNDELNSQENHNSSENGNENENEQDSLALDDLDRAFELVEGMDMDWMMPSHAHHSPATTATIKPRLLYSPLIHTQSAVPVTISPNLVATATSTTSANKVTKNKSNSSPYLNKRRGKPGPDSATSLFELPDSVIPTPKPKPKPKQYPKVILPSNST
modifications: phosphorylated in vitro by Pho80-Pho85: pS100, pS114, pS128, pS152 (pS114 and pS128 seen in the structure)
B8: mNeonGreen-pPho4_(3-200), wild type, phosphorylated (domain or fragment)
chain: B1 chain
modifications: phosphorylated in vitro by Pho80-Pho85: pS100, pS114, pS128, pS152
B9: mNeonGreen-pPho4_(3-200) R2mut (domain or fragment)
chain: B1 chain with Y111G, L114G, I115G, H116S, T117G
modifications: phosphorylated in vitro by Pho80-Pho85: pS100, pS114, pS128, pS152
B10: mNeonGreen-pPho4_(3-200) 102–107GKK (domain or fragment)
chain: B1 chain with A100G, T101K, T102K, A103G, T104K, I105K
modifications: phosphorylated in vitro by Pho80-Pho85: pS100, pS114, pS128, pS152
B11: mNeonGreen-pPho4_(3-200) S128A (domain or fragment)
chain: B1 chain with S126A
modifications: phosphorylated in vitro by Pho80-Pho85: pS100, pS114, pS152
B12: Msn5 (S. cerevisiae exportin), wild type (natural protein)
chain: T1 sequence

Tests used:
Msn5 (Kap142) = Msn5 (Kap142) (UniProt P52918); test: fluorescence polarization titration, mNeonG-pPho4; details: reference: wild-type pPho4; sites S114
[1] = biological target: T1, Msn5 (S. cerevisiae exportin), wild type; test: fluorescence polarisation
[2] = biological target: T1, Msn5 (S. cerevisiae exportin), wild type; test: cryo-EM structure
Msn5 RRAA (R393A, R458A) = biological target: T2, Msn5 RRAA (R393A, R458A); test: fluorescence polarisation
[3] = biological target: Pho4_(1-200) S114/128DD and Pho4_(1-200) S114/128EE; test: fluorescence polarisation

Molecule | Kd [1] | other results
Pho4 3-200 (from UniProt P07270) pPho4 S114A | – | KD (Msn5 (Kap142)): weaker; reference 44[26,71]
B1 | 2400 nM | –
B2 | 1000 nM | –
B3 | 280 nM | –
B4 | 46 nM | –
B5 | 250 nM | –
B6 | 150 nM | –
B7 | – | binding result [2]: binds
B8 | 20 nM and 44 nM and 25 nM | Kd (Msn5 RRAA (R393A, R458A)): 2200 nM
B9 | 800 nM | –
B10 | 110 nM | –
B11 | 120 nM | –
B12 | – | Kd [3]: 2000 to 3000 nM
